In publication PMC3806761, “Characterization of the Akt2 Domain Essential for Binding Nuclear p21cip1 to Promote Cell Cycle Arrest during Myogenic Differentiation” (PLoS ONE, 2013):

B1: Akt2 (350–481) (domain or fragment, human, UniProt P31751 350-481, looked up)
chain: FYNQDHERLFELILMEEIRFPRTLSPEAKSLLAGLLKKDPKQRLGGGPSDAKEVMEHRFFLSINWQDVVQKKLLPPFKPQVTSEVDTRYFDDEFTAQSITITPPDRYDSLGLLELDQRTHFPQFSYSASIRE
notes: The tag is therefore uncertain; source: expressed in bacteria, purified; not shown: His6, C-terminal, kept
B2: Akt2 (400–445) maltose binding fusion protein (domain or fragment, human, UniProt P31751 400-445, looked up)
chain: AKEVMEHRFFLSINWQDVVQKKLLPPFKPQVTSEVDTRYFDDEFTA
notes: The methods name no vector for this construct
B3: Akt2 (420–445) maltose binding fusion protein (domain or fragment, human, UniProt P31751 420-445, looked up)
chain: KKLLPPFKPQVTSEVDTRYFDDEFTA
notes: as for B2
B4: Akt2 (400–481) (domain or fragment, human, UniProt P31751 400-481, looked up)
chain: AKEVMEHRFFLSINWQDVVQKKLLPPFKPQVTSEVDTRYFDDEFTAQSITITPPDRYDSLGLLELDQRTHFPQFSYSASIRE
notes: as for B1

Key:
[1] = target: T1, recombinant human p21cip1 (human, UniProt P38936 1-164); assay: pull-down; purified His-tagged Akt2 proteins and His-tagged p21cip1 incubated together on ice; p21cip1 immunoprecipitated with anti-p21; immunoprecipitates probed for Akt2 by Western blot; conditions: both partners purified
T1 construct: In the functional row this molecule stands for p21cip1 endogenous in human myoblasts; source: recombinant, purified
T1 sequence (P38936 whole entry): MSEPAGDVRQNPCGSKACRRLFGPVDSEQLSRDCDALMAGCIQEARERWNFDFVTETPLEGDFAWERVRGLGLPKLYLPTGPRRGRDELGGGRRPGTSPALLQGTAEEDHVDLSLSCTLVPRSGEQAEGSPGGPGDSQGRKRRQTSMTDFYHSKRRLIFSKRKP

[2] = target: T1, recombinant human p21cip1; assay: pull-down; MBP-tagged Akt2 peptides bound to amylose resin, incubated with p21 (1 µg and 5 µg), extensively washed, maltose-fusion peptides eluted, blotted with anti-p21; conditions: both partners purified

Binder | binding result [1] | binding result [2]
B1 | binds | –
B2 | – | binds
B3 | – | binds
B4 | binds | –
